Experimental data: patent US20040266665A1

Tests used:
[1] = biological target: human thyroid stimulating hormone receptor (TSHR) (human) (UniProt P16473); experiment: cell-based or functional assay
[2] = biological target: human thyroid stimulating hormone receptor (TSHR) (human) (UniProt P16473); experiment: receptor binding affinity; assay and reference not described (reference presumably wild type hTSH)

Vmax of cyclic AMP production in CHO-JP09 cells, compared to wild type TSH [1] [fold] | in vitro activity (cyclic AMP production in CHO-JP09 cells) over that of the α4K/wild type β heterodimer [1] [fold] | potency in stimulation of cyclic AMP production in CHO-JP09 cells, compared to wild type TSH [1] [fold] | fold increase in binding affinity [2] [fold] | hormone potency [1] [fold] | Substance
1.5 | 3 to 4 | 200 |  |  | mutant TSH heterodimer comprising the α4K subunit (αQ13K+αE14K+αP16K+αQ20K) and a fusion protein of the TSH β subunit and the CTEP of hCG (from UniProt P0DN86 134-165) (ligand)
 |  |  | < 50000 | < 1300 | α4K/β3R hTSH analog (heterodimer of α4K mutant α subunit and β3R mutant TSH β subunit) (from UniProt P01215 25-116; P01222 21-132) (ligand)
